We go through 2 molecules from patent US20230295312A1 (AKESO BIOPHARMA, published 2023).

The target in assay [1] is T1, human IL4RA-hFc (human, UniProt P24394 26-232).
T1 construct: mature; Coating antigen in ELISA
T1 sequence (looked up): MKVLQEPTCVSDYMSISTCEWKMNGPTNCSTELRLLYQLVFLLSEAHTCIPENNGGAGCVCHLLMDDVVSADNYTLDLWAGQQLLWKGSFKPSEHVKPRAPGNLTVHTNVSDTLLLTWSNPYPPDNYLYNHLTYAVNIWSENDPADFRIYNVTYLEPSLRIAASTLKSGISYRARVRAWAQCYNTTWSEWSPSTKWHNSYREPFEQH
As to the kind of experiment: competitive ELISA vs IL4-N-His; Ab 3 ug/mL. The procedure: The ELISA plates were coated with human IL4RA-hFc and blocked before the antibodies were added. […] After the plates were washed, mouse anti-His, HRP (purchased from CoWin Biosciences, Cat No. CW0285A) was added for incubation. The plates were subjected to another wash. Chromogenic reaction was started by adding TMB (Neogen, 308177) and was then terminated. At the end of the reaction, the OD value at 450 nm wavelength was measured by a plate reader, and was analyzed and processed by SoftMax Pro 6.2.1.
(§1) By 4-parameter logistic regression of absorbance vs. antibody concentration, the blocking EC₅₀ of the antibodies was calculated.

Assay [2] deals with T1, human IL4RA-hFc. As to the kind of experiment: indirect ELISA, antigen coated 1 ug/mL. How it is done:
Procedures: The ELISA plates were coated with human IL4RA-hFc or human IL4RA-mFc and were incubated, and target antibodies were added after blocking. […] The plates were incubated and washed before TMB (Neogen, 308177) was added for chromogenic reaction. At the end of the reaction, the absorbance at 450 nm was measured by a plate reader. The data were analyzed by SoftMax Pro 6.2.1.

In assay [3] the target is T1, human IL4RA-hFc. As to the kind of experiment: competitive ELISA; blocks IL4-N-His binding to coated IL4RA-hFc. On the technique in general: ELISA stands for enzyme-linked immunosorbent assay.
Assay [4] addresses T1, human IL4RA-hFc. As to the kind of experiment: competitive ELISA; blocks IL4-N-His (0.15 ug/ml) binding to coated IL4RA-hFc (2 ug/mL). How it is done: The ELISA plates were coated with human IL4RA-hFc and blocked before the antibodies were added. […] After the plates were washed, mouse anti-His, HRP (purchased from CoWin Biosciences, Cat No. CW0285M) was added for incubation. The plates were subjected to another wash. Chromogenic reaction was started by adding TMB (Neogen, 308177) and was then terminated. At the end of the reaction, the OD value at 450 nm wavelength was measured by a plate reader, and was analyzed and processed by SoftMax Pro 6.2.1.
as §1

B1: 13E5 (antibody, V domains shown)
VH: EVQLQQSGPELVKPGASVKISCKTSGYTFTEYTIHWVKQNHGKSLEWIGGINPNNGGTVYNQNFKGKATLTVDKSSSTAYMELRSLTSEDSAVYYCARVRRGMDYWGQGTSVTVSS
VL: DIVMTQSHKFMSTSVGDRVSITCKASQDVTTAVAWYQQKPGQSPKLLIYSASYRYTGVPDRFTGSGSGTDFTFTISSVQAEDLAVYYCQQHYSAPWTFGGGTNLEIK
notes: Murine hybridoma antibody purified on protein A; also called murine antibody 13E5; antibody secreted by hybridoma LT008 (IL4RA-13E5)
With B1, the OD450 with human IL4RA-hFc [1] worked out at 0.053. Also, the EC50 – broadly, the midpoint of the concentration-response curve – was determined as 0.084 nM with human IL4RA-hFc [2] and 3 nM with human IL4RA-hFc [3].

B2: 18H7 (antibody, V domains shown)
VH: DVKLVESGGDLVNLGGSLKLSCAASGFTFSSSYMSWVRQTPERRLELVAAINSNGGKTYYPDTVKGRFTISRDNAKNTLYLQMSGLKTEDTALYYCTRQRGNYVGAMDYWGQGTSVTVSS
VL: DIVMTQSHKFMSTSVGDRVSITCKASQDVSTAVVWYQQKPGQSPTLLIYSASYRYTGVPDRFTGSGSGTDFTFTISSVQAEDLAVYYCHQYYGSPPTFGGGTKLEIK
notes: Murine hybridoma antibody purified on protein A; also called murine antibody 18H7; antibody secreted by hybridoma LT009 (IL4RA-18H7)
For B2, the EC50 with human IL4RA-hFc [4] was determined as 2.71 nM; with human IL4RA-hFc [2], 0.068 nM.
